The experiment concerns the target recombinant glyceraldehyde 3-phosphate dehydrogenase (GAPDH) tetramer (UniProt P04406 1-335). The experiment can be described thus: ITC. In general terms: In ITC the heat of successive injections is recorded.

Sequence of recombinant glyceraldehyde 3-phosphate dehydrogenase (GAPDH) tetramer (P04406 whole entry): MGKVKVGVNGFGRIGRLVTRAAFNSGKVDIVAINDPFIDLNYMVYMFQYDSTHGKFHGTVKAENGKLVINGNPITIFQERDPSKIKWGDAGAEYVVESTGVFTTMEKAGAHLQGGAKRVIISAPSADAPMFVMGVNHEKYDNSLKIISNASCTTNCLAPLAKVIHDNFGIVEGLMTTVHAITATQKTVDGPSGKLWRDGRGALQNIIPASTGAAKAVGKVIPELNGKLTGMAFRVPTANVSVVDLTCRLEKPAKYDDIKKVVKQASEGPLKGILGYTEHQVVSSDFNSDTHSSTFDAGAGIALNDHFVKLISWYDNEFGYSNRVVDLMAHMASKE

B1: recombinantly expressed band 3 (AE1) peptide, residues 1-56 (domain or fragment)
chain: MEELQDDYEDMMEENLEQEEYEDPDIPESQMEEPAAHDTEATATDYHTTSHPGTHK
One may read the Kd as the free concentration of one partner at which half of the binding sites on the other are occupied at equilibrium, for simple one-to-one binding. Take B1: the Kd came out at 2.56 mM.
To MEELQDDYEDMMEENLEQEEYEDPDIPESQ (domain or fragment) [recombinantly expressed AE1 peptide spanning residues 1-30] belongs 44.8 mM.

These data come from PMC8561282 (Haematologica, 2021).
